What was measured:
[1] = target: dAb (VL single domain antibody); experiment: column dynamic binding capacity at 10% breakthrough, dAb, 4 min residence time, duplicate columns
Herceptin (Trastuzumab) = experiment: column dynamic binding capacity at 10% breakthrough, Trastuzumab, 4 min residence time, at CIP cycle 35 (0.1 M NaOH)
[2] = target: dAb (VL single domain antibody); experiment: column dynamic binding capacity at 10% breakthrough, dAb, 10 min residence time, duplicate columns
[3] = target: dAb (VL single domain antibody); experiment: column dynamic binding capacity at 10% breakthrough, dAb, 2.4 min residence time, duplicate columns
[4] = target: dAb (VL single domain antibody); experiment: column dynamic binding capacity at 10% breakthrough, dAb, 6 min residence time, duplicate columns
[5] = target: Fab-fragment produced from Trastuzumab by papain cleavage; experiment: column dynamic binding capacity at 10% breakthrough, Fab-fragment, 1 min residence time, duplicate columns
Adalimumab [6] = experiment: column dynamic binding capacity at 10% breakthrough, 4 min residence time; ligand density about 14.3 mg/ml
Adalimumab [7] = experiment: column dynamic binding capacity at 10% breakthrough, 6 min residence time; ligand density about 14.3 mg/ml
[8] = target: Fab-fragment produced from Trastuzumab by papain cleavage; experiment: column dynamic binding capacity at 10% breakthrough, Fab-fragment, 6 min residence time; ligand density 11.0
[9] = target: Fab-fragment produced from Trastuzumab by papain cleavage; experiment: column dynamic binding capacity at 10% breakthrough, Fab-fragment, 6 min residence time; ligand density 10.6
IgG (Gammanorm) [10] = experiment: SPR (Biacore), variant amine-coupled to CM5 chip, Gammanorm as analyte, 1:1 kinetic fit
IgG (Gammanorm) [11] = experiment: SPR (Biacore), variant amine-coupled to CM5 chip, Gammanorm as analyte, steady state affinity fit
[12] = target: Fab-fragment produced from Trastuzumab by papain cleavage; experiment: column dynamic binding capacity at 10% breakthrough, Fab-fragment, 6 min residence time, duplicate columns
[13] = target: Fab-fragment produced from Trastuzumab by papain cleavage; experiment: column dynamic binding capacity at 10% breakthrough, Fab-fragment, 10 min residence time, duplicate columns

Chain of Pentamer of SEQ ID NO:3 (ligand B2-1, pAM237) immobilized on cross-linked agarose beads (prototype separation matrix) (chain): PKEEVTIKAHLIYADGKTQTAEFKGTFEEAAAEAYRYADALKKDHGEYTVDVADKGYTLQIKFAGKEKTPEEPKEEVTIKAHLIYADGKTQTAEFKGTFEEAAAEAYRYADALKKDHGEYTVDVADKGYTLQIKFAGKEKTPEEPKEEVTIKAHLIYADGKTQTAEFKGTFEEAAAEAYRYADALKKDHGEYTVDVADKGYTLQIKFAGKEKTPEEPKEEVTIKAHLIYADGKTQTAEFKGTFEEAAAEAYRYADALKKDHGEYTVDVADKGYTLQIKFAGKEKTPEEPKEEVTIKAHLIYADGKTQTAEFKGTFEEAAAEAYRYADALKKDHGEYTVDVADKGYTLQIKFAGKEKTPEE

Work on “Capto™ L (Cytiva™), commercial Protein L matrix” yielded a DBC Qb10% [1] of 16.2, a DBC Qb10% (Herceptin (Trastuzumab)) of 21 and a DBC Qb10% [2] of 16.7. The DBC Qb10% [3] was 15.8, the DBC Qb10% [4] was 16.4 and the DBC Qb10% [5] was 16.9.

With “Pentamer of SEQ ID NO:3 (ligand B2-1, pAM237) immobilized on cross-linked agarose beads (prototype separation matrix)” the DBC Qb10% (Adalimumab [6]) was 57 mg/mL, the DBC Qb10% (Adalimumab [7]) was 67 mg/mL and the DBC Qb10% 6 min RT [8] was 55.5. The DBC Qb10% 6 min RT [9] was 56.8 and the DBC Qb10% [5] was 48.1.

Substance “Protein L construct pAM114 (wt B3 domain; N10, N45, N60)” has a Kd (IgG (Gammanorm) [10]) of 11 nM and a Kd (IgG (Gammanorm) [11]) of 46 nM.

In the case of “Protein L variant pAM236 (domain B1b-1; H10, H45, Q60)”, the Kd (IgG (Gammanorm) [10]) is reported as 61 nM and the Kd (IgG (Gammanorm) [11]) is reported as 130 nM.

In the case of “Protein L variant pAM240 (domain B5b-1; H10, H45, Q60)”, the Kd (IgG (Gammanorm) [10]) is reported as 15 nM and the Kd (IgG (Gammanorm) [11]) is reported as 79 nM.

“Protein L variant pAM241 (domain C1-1; H10, H45, Q60)” was tested, and the Kd (IgG (Gammanorm) [10]) was 87 nM and the Kd (IgG (Gammanorm) [11]) was 187 nM.

With “Protein L variant pAM242 (domain C1b-1; H10, H45, Q60)” the Kd (IgG (Gammanorm) [10]) was 49 nM and the Kd (IgG (Gammanorm) [11]) was 116 nM.

Work on “Protein L variant pAM250 (domain B1b-2; H10, H45, Y60)” yielded a Kd (IgG (Gammanorm) [10]) of 40 nM and a Kd (IgG (Gammanorm) [11]) of 99 nM.

In the case of “Protein L variant pAM254 (domain B5b-2; H10, H45, Y60)”, the Kd (IgG (Gammanorm) [10]) is reported as 7 nM and the Kd (IgG (Gammanorm) [11]) is reported as 41 nM.

In the case of “Protein L variant pAM255 (domain C1-2; H10, H45, Y60)”, the Kd (IgG (Gammanorm) [10]) is reported as 146 nM and the Kd (IgG (Gammanorm) [11]) is reported as 324 nM.

Work on “Protein L variant pAM256 (domain C1b-2; H10, H45, Y60)” yielded a Kd (IgG (Gammanorm) [10]) of 59 nM and a Kd (IgG (Gammanorm) [11]) of 134 nM.

For TOYOPEARL® AF-r Protein L-650F (Tosoh), the DBC Qb10% [1] was 25.2, the DBC Qb10% [2] was 26 and the DBC Qb10% [12] was 57.7. The DBC Qb10% [3] was 23.7, the DBC Qb10% [4] was 26.3 and the DBC Qb10% [5] was 43.7. The DBC Qb10% [13] was 58.1.

Reference: patent US20250196025A1
